Columns and labels:
[1] = molecular target: T1, human TIGIT, full-length, expressed on transfected HEK293 cells (human); assay: flow cytometry, HEK293 transfectants, 100 nM
T1 sequence: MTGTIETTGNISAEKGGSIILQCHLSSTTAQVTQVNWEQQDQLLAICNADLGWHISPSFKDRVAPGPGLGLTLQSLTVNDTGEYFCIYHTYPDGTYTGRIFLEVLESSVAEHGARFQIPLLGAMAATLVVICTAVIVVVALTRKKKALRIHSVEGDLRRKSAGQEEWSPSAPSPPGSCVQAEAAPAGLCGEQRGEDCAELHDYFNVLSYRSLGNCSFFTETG

[2] = molecular target: T2, human CD96, full-length, expressed on transfected HEK293 cells (human) (UniProt P40200); assay: flow cytometry, HEK293 transfectants, 100 nM
T2 sequence: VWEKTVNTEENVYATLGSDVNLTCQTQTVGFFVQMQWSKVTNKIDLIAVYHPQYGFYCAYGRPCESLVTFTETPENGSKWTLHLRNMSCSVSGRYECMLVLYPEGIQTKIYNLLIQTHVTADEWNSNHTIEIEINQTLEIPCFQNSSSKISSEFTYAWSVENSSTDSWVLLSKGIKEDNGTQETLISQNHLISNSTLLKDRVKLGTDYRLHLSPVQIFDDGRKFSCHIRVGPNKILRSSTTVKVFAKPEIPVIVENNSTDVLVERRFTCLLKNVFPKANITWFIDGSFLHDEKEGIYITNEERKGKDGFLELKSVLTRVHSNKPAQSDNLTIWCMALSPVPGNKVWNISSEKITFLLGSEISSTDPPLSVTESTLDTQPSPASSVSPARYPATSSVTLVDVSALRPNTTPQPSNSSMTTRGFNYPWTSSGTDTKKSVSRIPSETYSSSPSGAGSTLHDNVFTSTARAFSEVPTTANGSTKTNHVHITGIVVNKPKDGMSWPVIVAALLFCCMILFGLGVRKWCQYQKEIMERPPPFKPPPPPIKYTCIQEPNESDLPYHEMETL

human CD226 (human) = molecular target: T3, human CD226 (human); assay: flow cytometry, transfected HEK293 cells, 100 nM
T3 sequence: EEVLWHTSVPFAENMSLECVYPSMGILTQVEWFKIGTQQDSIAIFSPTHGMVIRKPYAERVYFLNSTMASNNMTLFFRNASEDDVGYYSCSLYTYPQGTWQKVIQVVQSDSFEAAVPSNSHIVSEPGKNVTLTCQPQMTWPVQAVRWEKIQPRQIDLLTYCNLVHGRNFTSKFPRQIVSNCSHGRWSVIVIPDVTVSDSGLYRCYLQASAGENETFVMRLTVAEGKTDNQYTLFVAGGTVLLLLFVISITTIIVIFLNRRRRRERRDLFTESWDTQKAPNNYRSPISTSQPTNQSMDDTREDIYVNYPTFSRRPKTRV

human TIGIT (human) [3] = assay: flow cytometry, transfected HEK293 cells, 100 nM
[4] = molecular target: CD112R (Homo sapiens (Human)) (UniProt Q6DKI7); assay: flow cytometry, transfected HEK293 cells, 100 nM
human CD96 (human) = molecular target: T4, human CD96 (human) (UniProt P40200); assay: flow cytometry, transfected HEK293 cells, 100 nM
T4 sequence: T2 sequence

[5] = molecular target: PD-1 expressed on cells (human); assay: flow cytometry, cells expressing PD-1
[6] = molecular target: CD80 expressed on cells (Homo sapiens); assay: flow cytometry, cells expressing CD80
human TIGIT (human) [7] = molecular target: human TIGIT (human)
[8] = molecular target: CD112R (Homo sapiens (Human)) (UniProt Q6DKI7)
[9] = molecular target: PD-1 expressed on cells (human); assay: flow cytometry, Jurkat/PD-1 cells
Target sequence in this assay (chain, as listed by the source): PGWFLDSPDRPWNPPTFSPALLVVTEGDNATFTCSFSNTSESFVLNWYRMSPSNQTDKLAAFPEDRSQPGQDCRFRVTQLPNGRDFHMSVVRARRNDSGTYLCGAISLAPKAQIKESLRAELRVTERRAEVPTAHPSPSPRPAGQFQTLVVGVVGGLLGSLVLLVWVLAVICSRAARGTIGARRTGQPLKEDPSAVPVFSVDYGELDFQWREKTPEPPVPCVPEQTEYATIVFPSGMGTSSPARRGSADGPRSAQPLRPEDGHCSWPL

PD-1-Fc (Homo sapiens) = assay: ForteBio, PD-1-Fc
Chain of PD-1-Fc (Homo sapiens) (chain, as listed by the source limits assumed): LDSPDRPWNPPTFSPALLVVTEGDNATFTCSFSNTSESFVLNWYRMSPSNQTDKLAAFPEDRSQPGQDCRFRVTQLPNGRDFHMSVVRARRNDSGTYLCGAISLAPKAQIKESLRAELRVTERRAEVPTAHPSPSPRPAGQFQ

Chain of CD155 IgV Fc (P15151 21-142): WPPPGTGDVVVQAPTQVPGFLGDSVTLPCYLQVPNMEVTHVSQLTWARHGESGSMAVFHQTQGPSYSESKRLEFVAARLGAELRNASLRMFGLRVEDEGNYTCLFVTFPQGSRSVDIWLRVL
Chain of CD112R (Homo sapiens (Human)) (Q6DKI7 whole entry): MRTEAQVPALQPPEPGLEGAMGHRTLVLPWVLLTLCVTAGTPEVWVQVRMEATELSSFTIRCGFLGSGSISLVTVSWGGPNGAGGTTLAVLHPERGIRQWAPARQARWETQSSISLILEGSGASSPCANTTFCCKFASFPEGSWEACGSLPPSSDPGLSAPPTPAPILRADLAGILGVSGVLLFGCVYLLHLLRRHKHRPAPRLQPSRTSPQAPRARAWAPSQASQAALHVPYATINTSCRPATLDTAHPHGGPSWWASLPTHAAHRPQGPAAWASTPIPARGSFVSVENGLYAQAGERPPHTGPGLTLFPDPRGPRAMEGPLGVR
Chain of CD112 ECD-Fc (Fc fusion) (chain): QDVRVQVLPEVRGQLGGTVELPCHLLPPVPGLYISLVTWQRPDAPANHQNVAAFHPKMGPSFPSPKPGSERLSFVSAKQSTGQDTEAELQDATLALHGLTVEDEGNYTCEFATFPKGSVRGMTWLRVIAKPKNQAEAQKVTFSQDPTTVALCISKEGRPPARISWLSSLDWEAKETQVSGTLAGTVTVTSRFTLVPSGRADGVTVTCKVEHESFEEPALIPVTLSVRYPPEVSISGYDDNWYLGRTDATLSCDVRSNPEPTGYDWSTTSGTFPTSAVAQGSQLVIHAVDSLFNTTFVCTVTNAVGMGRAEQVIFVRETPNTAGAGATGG
Chain of CTLA4-Fc (Fc fusion) (chain): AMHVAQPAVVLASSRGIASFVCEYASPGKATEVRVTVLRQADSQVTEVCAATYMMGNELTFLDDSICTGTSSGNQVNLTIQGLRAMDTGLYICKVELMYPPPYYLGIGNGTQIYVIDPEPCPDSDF
Chain of human PD-1 (human) (chain, as listed by the source limits assumed): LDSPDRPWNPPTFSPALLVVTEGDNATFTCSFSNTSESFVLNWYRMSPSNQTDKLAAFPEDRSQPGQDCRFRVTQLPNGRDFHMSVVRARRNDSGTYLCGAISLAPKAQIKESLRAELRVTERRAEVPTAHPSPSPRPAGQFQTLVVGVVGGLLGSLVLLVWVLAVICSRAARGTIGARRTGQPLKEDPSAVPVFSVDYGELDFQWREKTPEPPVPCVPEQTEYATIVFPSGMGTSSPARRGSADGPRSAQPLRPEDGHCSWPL

Substance	MFI at 20 nM [5]	MFI at 20 nM [6]	Fold Change Compared to WT PD-L1 [5]	other results
CD112 ECD-Fc (Fc fusion)	–	–	–	MFI at 100 nM [1]: 29200 MFI; MFI at 100 nM [2]: 1100 MFI
CD155 IgV Fc (from UniProt P15151) (Fc fusion)	–	–	–	MFI at 100 nM (human CD226 (human)): 4690; MFI at 100 nM (human TIGIT (human) [3]): 4690; Fold ↑ to WT ECD [4]: 1.65; MFI at 100 nM [4]: 2940; MFI at 100 nM (human CD96 (human)): 3270
CTLA4-Fc (Fc fusion)	59	200000	–	–
Fc Control	59	132	–	RLU (IL-2-luciferase reporter) (human TIGIT (human) [7]): 624 RLU; RLU (IL-2-luciferase reporter) [8]: 624 RLU; RLU (IL-2-luciferase reporter) (human PD-1 (human)): 624 RLU
variant PD-L1 ECD-Fc G15A, I36T, M97L, K111E, H202Q (Fc fusion)	112	–	–	–
variant PD-L1 ECD-Fc G15A, I36T, V129D (Fc fusion)	114	136	0	–
variant PD-L1 ECD-Fc G15A, I36T, V129D, R195G (Fc fusion)	125	–	0	–
variant PD-L1 ECD-Fc G15A, V129D (Fc fusion)	–	128	0.7	–
variant PD-L1 ECD-Fc I36T, G52R, M97L, V112A, K144E, V175A, P198T (Fc fusion)	81	149	0	–
variant PD-L1 ECD-Fc I36T, I46V, D55G, M97L, K106E, K144E, T185A, R195G (Fc fusion)	69	190	0	–
variant PD-L1 ECD-Fc I36T, M97L, A103V, Q155H (Fc fusion)	120	128	0	–
variant PD-L1 ECD-Fc K28I, S99G (Fc fusion)	830	–	–	–
variant PD-L1 ECD-Fc L35P, I36S, M97L, K111E (Fc fusion)	190	155	0.1	–
variant PD-L1 ECD-Fc M18V, I98L, L124S, P198T, L206F (Fc fusion)	–	143	0.7	–
variant PD-L1 ECD-Fc M18V, M97L, F193S, R195G, E200K, H202Q (Fc fusion)	69	–	0	–
variant PD-L1 ECD-Fc V93E, V129D (Fc fusion)	–	150	0.4	–
variant PD-L1 ECD-Fc V129D, H202Q (Fc fusion)	–	219	0.6	Fold Change Compared to WT PD-L1 [6]: 1.6
variant PD-L1 ECD-Fc V129D, P198T (Fc fusion)	–	152	1	–
variant PD-L1 ECD-Fc V129D, T150A (Fc fusion)	–	142	0.6	–
variant PD-L2 IgV-Fc H15Q, R76G, I85F (SEQ ID NO 680) (Fc fusion)	–	–	–	Fold increase over wildtype PD-L2 IgV-Fc [9]: 0.3; MFI at 50 nM [9]: 2940; Fortebio binding to PD-1-Fc Response Units (Response Units) (PD-1-Fc (Homo sapiens)): -0.038
variant PD-L2 IgV-Fc H15Q, R76G, I85F (SEQ ID NO 685) (Fc fusion)	–	–	–	Fold increase over wildtype PD-L2 IgV-Fc [9]: 0.19; MFI at 50 nM [9]: 1890; Fortebio binding to PD-1-Fc Response Units (Response Units) (PD-1-Fc (Homo sapiens)): -0.006
